Measurements from patent US7452534.

Molecular target: human CD4 on cells (human) (UniProt P01730)
Assay: cell-based or functional assay

CE9γ4λK, chimeric anti-CD4 antibody with human gamma 4 heavy chain constant domain and human kappa light chain constant region
MLR IL-2 Production (IC50): 0.02 µg/mL | MLR Proliferation (IC50): 0.02 µg/mL
